Publication PMC8514532 (2021)

Biological target: PopP2 (149-488), AVI-tagged and biotinylated, the 'WT' of the BLI assay (Ralstonia solanacearum, UniProt Q8Y125 149-488)
Experiment: BLI

B1: WRKY DNA-binding domain of the Arabidopsis RRS1-R immune receptor (domain or fragment)
chain: SESKVKKVVSIPAIDEGDLWTWRKYGQKDILGSRFPRGYYRCAYKFTHGCKATKQVQRSETDSNMLAITYLSEHNHPRPT
Kd: 13 nM
